Assay results: patent US10941182 (Amgen, dated 2021)
Starred links: 1 amine or outer side, 2 acyl side, 3 side chain; linkers in the order of their positions; H or OH if unused. Non-standard residues stand in square brackets, D forms with d. *: point of attachment. AC4Abu = α-carboxy-4-aminobutyric acid, O=C(C(CCN[*:1])C(=O)[*:3])[*:2]; dBip = N[C@H](Cc1ccc(-c2ccccc2)cc1)C(=O)O; Oic = O=C(O)[C@@H]1C[C@@H]2CCCC[C@@H]2N1; Phe(4-Cl) = N[C@@H](Cc1ccc(Cl)cc1)C(=O)O; dPhe(4-Cl) = N[C@H](Cc1ccc(Cl)cc1)C(=O)O; Phe(4-I) = N[C@@H](Cc1ccc(I)cc1)C(=O)O; γGlu = O=C(O)[C@H](CCC(=O)[*:2])N[*:1]; HOOC(CH2)8CO = O=C(O)CCCCCCCCC(=O)*; NMeR = CN[C@@H](CCCNC(=N)N)C(=O)O; Tridecanoyl = CCCCCCCCCCCCC(=O)*; hArg = N=C(N)NCCCC[C@H](N)C(=O)O; Cha = N[C@@H](CC1CCCCC1)C(=O)O; NMeL = CN[C@@H](CC(C)C)C(=O)O; αMeL = CC(C)C[C@](C)(N)C(=O)O; β3hN = NC(=O)C[C@H](N)CC(=O)O; Nle = CCCC[C@H](N)C(=O)O; AEEA = NCCOCCOCC(=O)O; Aib = CC(C)(N)C(=O)O

T1: human APJ receptor (human, UniProt P35414 1-380)
T1 sequence (looked up): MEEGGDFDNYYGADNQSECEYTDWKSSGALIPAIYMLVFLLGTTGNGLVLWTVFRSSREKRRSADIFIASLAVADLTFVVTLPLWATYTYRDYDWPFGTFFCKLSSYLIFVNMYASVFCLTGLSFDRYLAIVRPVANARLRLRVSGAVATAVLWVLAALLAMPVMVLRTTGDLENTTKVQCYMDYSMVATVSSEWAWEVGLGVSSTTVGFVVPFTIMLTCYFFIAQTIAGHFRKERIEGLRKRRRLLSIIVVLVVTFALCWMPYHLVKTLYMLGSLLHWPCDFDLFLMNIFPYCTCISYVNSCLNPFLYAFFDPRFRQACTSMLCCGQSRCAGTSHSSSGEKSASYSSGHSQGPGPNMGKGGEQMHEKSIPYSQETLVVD

T2: rat APJ receptor (rat, UniProt Q9JHG3 1-377)
T2 sequence (looked up): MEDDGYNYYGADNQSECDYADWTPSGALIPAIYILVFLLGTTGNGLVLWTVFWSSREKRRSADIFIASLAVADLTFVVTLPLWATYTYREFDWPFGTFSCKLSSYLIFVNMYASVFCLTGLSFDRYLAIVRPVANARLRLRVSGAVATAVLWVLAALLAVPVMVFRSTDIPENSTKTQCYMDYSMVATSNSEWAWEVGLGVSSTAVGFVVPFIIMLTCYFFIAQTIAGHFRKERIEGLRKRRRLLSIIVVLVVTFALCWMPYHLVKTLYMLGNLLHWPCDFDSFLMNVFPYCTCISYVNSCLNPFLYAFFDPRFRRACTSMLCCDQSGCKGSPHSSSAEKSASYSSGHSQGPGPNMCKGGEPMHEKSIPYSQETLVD


Key:
[1] = molecular target: T1, human APJ receptor; experiment: cell-based or functional assay
[2] = molecular target: T2, rat APJ receptor; experiment: cell-based or functional assay

Row | Binder | EC50 Human APJ Receptor [1] [pM] | EC50 Rat APJ Receptor [2] [pM]
1 | {HOOC(CH2)8CO}-[γGlu][AEEA][AEEA][hArg]Q[hArg]P[NMeR][Cha]SHKG[Oic][Nle]P[Phe(4-Cl)]-OH (SMILES CCCC[C@H](NC(=O)[C@@H]1C[C@@H]2CCCC[C@@H]2N1C(=O)CNC(=O)[C@H](CCCCN)NC(=O)[C@H](Cc1c[nH]cn1)NC(=O)[C@H](CO)NC(=O)[C@H](CC1CCCCC1)NC(=O)[C@H](CCCNC(=N)N)N(C)C(=O)[C@@H]1CCCN1C(=O)[C@H](CCCCNC(=N)N)NC(=O)[C@H](CCC(N)=O)NC(=O)[C@H](CCCCNC(=N)N)NC(=O)COCCOCCNC(=O)COCCOCCNC(=O)CC[C@H](NC(=O)CCCCCCCCC(=O)O)C(=O)O)C(=O)N1CCC[C@H]1C(=O)N[C@@H](Cc1ccc(Cl)cc1)C(=O)O) [SEQ ID NO: 474] | 1140 | 3760
2 | {HOOC(CH2)8CO}-[γGlu][AEEA][AEEA]Q[hArg]P[dR][NMeL]SHKG[Oic][Phe(4-I)]P[dBip]-OH (SMILES CC(C)C[C@@H](C(=O)N[C@@H](CO)C(=O)N[C@@H](Cc1c[nH]cn1)C(=O)N[C@@H](CCCCN)C(=O)NCC(=O)N1[C@H](C(=O)N[C@@H](Cc2ccc(I)cc2)C(=O)N2CCC[C@H]2C(=O)N[C@H](Cc2ccc(-c3ccccc3)cc2)C(=O)O)C[C@@H]2CCCC[C@@H]21)N(C)C(=O)[C@@H](CCCNC(=N)N)NC(=O)[C@@H]1CCCN1C(=O)[C@H](CCCCNC(=N)N)NC(=O)[C@H](CCC(N)=O)NC(=O)COCCOCCNC(=O)COCCOCCNC(=O)CC[C@H](NC(=O)CCCCCCCCC(=O)O)C(=O)O) [SEQ ID NO: 288] | 38600 | 38500
3 | XXXQRPRLSHKGPXPF ({Sebacicacid}[AC4Abu][Aeea][Aeea]QRP[NMeArg]LSHKGP[Nle]P[4-Cl-F]{COOH}) [SEQ ID NO: 509] | 179 | 864
4 | Tridecanoyl-[AC4Abu][AC4Abu][AEEA][AEEA][dQ]RP[NMeR][Cha]SHKG[Oic][Nle][Aib][Phe(4-Cl)]-OH (SMILES CCCCCCCCCCCCC(=O)NCCC(C(=O)O)C(=O)NCCC(C(=O)O)C(=O)NCCOCCOCC(=O)NCCOCCOCC(=O)N[C@H](CCC(N)=O)C(=O)N[C@@H](CCCNC(=N)N)C(=O)N1CCC[C@H]1C(=O)N(C)[C@@H](CCCNC(=N)N)C(=O)N[C@@H](CC1CCCCC1)C(=O)N[C@@H](CO)C(=O)N[C@@H](Cc1c[nH]cn1)C(=O)N[C@@H](CCCCN)C(=O)NCC(=O)N1[C@H](C(=O)N[C@@H](CCCC)C(=O)NC(C)(C)C(=O)N[C@@H](Cc2ccc(Cl)cc2)C(=O)O)C[C@@H]2CCCC[C@@H]21) [SEQ ID NO: 534] | 683 | 3750
5 | XXXXQRPRLSHKGPXPF ({TDA}[AC4Abu][AC4Abu][Aeea][Aeea]QRP[NMeArg]LSHKGP[Nle]P[4-Cl-F]{COOH}) [SEQ ID NO: 399] | 33.5 | 104
6 | Tridecanoyl-[AC4Abu][AC4Abu][AEEA][dQ]RP[NMeR][Cha]SHKG[Oic][Nle][Aib][Phe(4-Cl)]-OH (SMILES CCCCCCCCCCCCC(=O)NCCC(C(=O)O)C(=O)NCCC(C(=O)O)C(=O)NCCOCCOCC(=O)N[C@H](CCC(N)=O)C(=O)N[C@@H](CCCNC(=N)N)C(=O)N1CCC[C@H]1C(=O)N(C)[C@@H](CCCNC(=N)N)C(=O)N[C@@H](CC1CCCCC1)C(=O)N[C@@H](CO)C(=O)N[C@@H](Cc1c[nH]cn1)C(=O)N[C@@H](CCCCN)C(=O)NCC(=O)N1[C@H](C(=O)N[C@@H](CCCC)C(=O)NC(C)(C)C(=O)N[C@@H](Cc2ccc(Cl)cc2)C(=O)O)C[C@@H]2CCCC[C@@H]21) [SEQ ID NO: 535] | 798 | 5140
7 | XXXQRPRLSHKGPXPF ({TDA}[AC4Abu][AC4Abu][Aeea]QRP[NMeArg]LSHKGP[Nle]P[4-Cl-F]{COOH}) [SEQ ID NO: 462] | 15.4 | 79.2
8 | Tridecanoyl-[AC4Abu][AC4Abu][dQ]RP[NMeR][Cha]SHKG[Oic][Nle][Aib][Phe(4-Cl)]-OH (SMILES CCCCCCCCCCCCC(=O)NCCC(C(=O)O)C(=O)NCCC(C(=O)O)C(=O)N[C@H](CCC(N)=O)C(=O)N[C@@H](CCCNC(=N)N)C(=O)N1CCC[C@H]1C(=O)N(C)[C@@H](CCCNC(=N)N)C(=O)N[C@@H](CC1CCCCC1)C(=O)N[C@@H](CO)C(=O)N[C@@H](Cc1c[nH]cn1)C(=O)N[C@@H](CCCCN)C(=O)NCC(=O)N1[C@H](C(=O)N[C@@H](CCCC)C(=O)NC(C)(C)C(=O)N[C@@H](Cc2ccc(Cl)cc2)C(=O)O)C[C@@H]2CCCC[C@@H]21) [SEQ ID NO: 533] | 629 | 3880
9 | Tridecanoyl-[AC4Abu][AEEA][AC4Abu][dQ]RP[NMeR][Cha]SHKG[Oic][Nle][Aib][Phe(4-Cl)]-OH (SMILES CCCCCCCCCCCCC(=O)NCCC(C(=O)O)C(=O)NCCOCCOCC(=O)NCCC(C(=O)O)C(=O)N[C@H](CCC(N)=O)C(=O)N[C@@H](CCCNC(=N)N)C(=O)N1CCC[C@H]1C(=O)N(C)[C@@H](CCCNC(=N)N)C(=O)N[C@@H](CC1CCCCC1)C(=O)N[C@@H](CO)C(=O)N[C@@H](Cc1c[nH]cn1)C(=O)N[C@@H](CCCCN)C(=O)NCC(=O)N1[C@H](C(=O)N[C@@H](CCCC)C(=O)NC(C)(C)C(=O)N[C@@H](Cc2ccc(Cl)cc2)C(=O)O)C[C@@H]2CCCC[C@@H]21) [SEQ ID NO: 536] | 592 | 2030
10 | XXXXXXXQRPRLSHKGPXPF ({TDA}[AC4Abu][Aeea][Aeea][Aeea][Aeea][Aeea][Aeea]QRP[NMeArg]LSHKGP[Nle]P[4-Cl-F]{COOH}) [SEQ ID NO: 398] | 57.4 | 116
11 | Tridecanoyl-[γGlu][AEEA][AEEA][αMeL]RP[NMeR][αMeL]SHKG[Oic][Nle]P[Phe(4-Cl)]-OH (SMILES CCCCCCCCCCCCC(=O)N[C@@H](CCC(=O)NCCOCCOCC(=O)NCCOCCOCC(=O)N[C@@](C)(CC(C)C)C(=O)N[C@@H](CCCNC(=N)N)C(=O)N1CCC[C@H]1C(=O)N(C)[C@@H](CCCNC(=N)N)C(=O)N[C@@](C)(CC(C)C)C(=O)N[C@@H](CO)C(=O)N[C@@H](Cc1c[nH]cn1)C(=O)N[C@@H](CCCCN)C(=O)NCC(=O)N1[C@H](C(=O)N[C@@H](CCCC)C(=O)N2CCC[C@H]2C(=O)N[C@@H](Cc2ccc(Cl)cc2)C(=O)O)C[C@@H]2CCCC[C@@H]21)C(=O)O) [SEQ ID NO: 375] | 155 | 288
12 | Tridecanoyl-[γGlu][AEEA][AEEA][β3hN][hArg]P[NMeR][Cha]SHKG[Oic][Nle]P[dPhe(4-Cl)]-OH (SMILES CCCCCCCCCCCCC(=O)N[C@@H](CCC(=O)NCCOCCOCC(=O)NCCOCCOCC(=O)N[C@@H](CC(N)=O)CC(=O)N[C@@H](CCCCNC(=N)N)C(=O)N1CCC[C@H]1C(=O)N(C)[C@@H](CCCNC(=N)N)C(=O)N[C@@H](CC1CCCCC1)C(=O)N[C@@H](CO)C(=O)N[C@@H](Cc1c[nH]cn1)C(=O)N[C@@H](CCCCN)C(=O)NCC(=O)N1[C@H](C(=O)N[C@@H](CCCC)C(=O)N2CCC[C@H]2C(=O)N[C@H](Cc2ccc(Cl)cc2)C(=O)O)C[C@@H]2CCCC[C@@H]21)C(=O)O) [SEQ ID NO: 299] | 24400 | 14600
